Test results from patent US20260274986A1, “USE OF CHIMERA IN TARGETED PROTEIN DEGRADATION TECHNOLOGY” (SUN YAT-SEN UNIVERSITY, priority 2023, published 2026).

Columns and labels:
EGFR = molecular target: T1, EGFR (Homo sapiens, UniProt P00533); test: Chimera-induced degradation of EGFR, Western blot; type: cell-based; details: 48 hours
T1 construct: two EGFR-high-expressing cell lines-A431, and A549-were selected for the experiment; endogenous in cells; host or cells: A431, A549
Description: In this Example, two EGFR-high-expressing cell lines-A431, and A549-were selected for the experiment. The cells were plated one day before the administration of chimeras. […] Subsequently, the cells were lysed using a lysis buffer, total proteins were extracted, and protein concentration was quantified using a BCA protein assay kit (Thermo Fisher). Proteins were separated by 10% SDS-PAGE and transferred onto polyvinylidene fluoride (PVDF) membranes via electroblotting. The membranes were blocked with 5% skim milk at room temperature for 1 hour. After removing the milk, the membranes were incubated with a primary antibody overnight at 4° C. on a shaker. The next day, the membranes were quickly immersed in TBST and washed three times, followed by incubation with a secondary antibody at room temperature for 1 hour. Finally, the proteins were detected and recorded using a chemiluminescence reagent and a Tanon chemiluminescence imaging system, and quantitative analysis was performed on the proteins using ImageJ. All primary antibodies used in this Example were an anti-EGFR antibody.

CDK5 = molecular target: T2, CDK5 (Homo sapiens, UniProt Q00535); test: Chimera-induced degradation of intracellular target CDK5, Western blot; type: cell-based; details: T24 cells; 48 hours; compared to PEP2 and P1
T2 construct: a CDK5-high-expressing cell line—T24 human bladder cancer cells—was selected for the experiment; endogenous in cells; host or cells: T24
Description: In this Example, a CDK5-high-expressing cell line—T24 human bladder cancer cells—was selected for the experiment. The cells were plated one day before the administration of chimeras. Each of PEP2, P1 and PEP-C4-P1 was diluted in complete medium and incubated with the cells for 48 hours. Subsequently, the cells were lysed using a lysis buffer, total proteins were extracted, and protein concentration was quantified using a BCA protein assay kit (Thermo Fisher). Proteins were separated by 10% SDS-PAGE and transferred onto polyvinylidene fluoride (PVDF) membranes via electroblotting. The membranes carrying the proteins were blocked with 5% skim milk at room temperature for 1 hour. After removing the milk, the membranes were incubated with a primary antibody overnight at 4° C. on a shaker. The next day, the membranes were quickly immersed in TBST and washed three times, followed by incubation with a secondary antibody at room temperature for 1 hour. Finally, the proteins were detected and recorded using a chemiluminescence reagent and a Tanon chemiluminescence imaging system, and quantitative analysis was performed on the proteins using ImageJ. All primary antibodies used in this Example were an anti-CDK5 antibody.

T2 sequence (Q00535 whole entry): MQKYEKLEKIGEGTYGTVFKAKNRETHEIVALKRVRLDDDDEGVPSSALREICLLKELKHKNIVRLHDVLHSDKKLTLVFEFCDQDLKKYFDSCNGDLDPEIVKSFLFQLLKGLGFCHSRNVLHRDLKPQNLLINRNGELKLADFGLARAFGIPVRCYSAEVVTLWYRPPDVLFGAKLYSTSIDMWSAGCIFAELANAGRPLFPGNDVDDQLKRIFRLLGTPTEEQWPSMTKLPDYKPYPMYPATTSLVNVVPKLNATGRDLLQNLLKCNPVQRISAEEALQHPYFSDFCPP

Row | Substance | degradation of EGFR (Western blot, FIG. 6C) (EGFR; A431 cells) | degradation of EGFR (Western blot, FIG. 6C) (EGFR; A549 cells) | degradation of CDK5 (Western blot, FIG. 15) (CDK5)
1 | PEP1-C3-P1: EGFR-binding polypeptide PEP1 (LARLLT) fused at C-terminus to C3-P1, SEQ ID NO: 135 (LARLLTRRRRKSFHDDSDEDLLHI) | obvious degradation effect on the membrane receptor EGFR | obvious degradation effect on the membrane receptor EGFR | 
2 | PEP2-C4-P1: CDK5-binding polypeptide PEP2 (RRPPRSPDHKRYFRDKE) fused at C-terminus to C4-P1, SEQ ID NO: 136 (RRPPRSPDHKRYFRDKEYGRKKRRQRRRSFHDDSDEDLLHI) |  |  | obvious degradation effect on CDK5
3 | PEP1-P1: EGFR-binding polypeptide PEP1 (LARLLT) fused at C-terminus to P1, SEQ ID NO: 134 (LARLLTSFHDDSDEDLLHI) | obvious degradation effect on the membrane receptor EGFR | obvious degradation effect on the membrane receptor EGFR | 
